The results in this text go back to paper PMC11463501 (bioRxiv, 2024).

Experiment [1] concerns the target T1, PTg S5 subunit (Bordetella pertussis, UniProt P04981 35-133).
T1 sequence: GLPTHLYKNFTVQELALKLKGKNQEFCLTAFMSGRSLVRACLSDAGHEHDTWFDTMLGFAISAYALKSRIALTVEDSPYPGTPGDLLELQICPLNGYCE
Put plainly: cryo-EM structure.

The next experiment concerns the target PTg S2 subunit (Bordetella pertussis, UniProt P04978). Put plainly: cryo-EM structure.
For the next experiment, the target named is PTg S3 subunit (Bordetella pertussis, UniProt P04979). Put plainly: cryo-EM structure.
PTg S3 subunit, sequence (P04979 29-227): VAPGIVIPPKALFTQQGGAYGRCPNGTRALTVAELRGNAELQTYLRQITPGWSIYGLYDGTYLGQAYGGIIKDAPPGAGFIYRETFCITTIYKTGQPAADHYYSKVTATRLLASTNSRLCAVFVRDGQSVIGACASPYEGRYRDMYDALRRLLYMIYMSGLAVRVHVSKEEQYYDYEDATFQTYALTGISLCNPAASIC
For experiment [2], the target named is Pertussis toxin (PT), enzymatically active (Bordetella pertussis; strain of bought …, UniProt P04977;P04978;P04979;P0A3R5;P04981). Nature of the experiment: ELISA.
Pertussis toxin (PT), enzymatically active, sequence (P04978 28-226, chain 2 of 3): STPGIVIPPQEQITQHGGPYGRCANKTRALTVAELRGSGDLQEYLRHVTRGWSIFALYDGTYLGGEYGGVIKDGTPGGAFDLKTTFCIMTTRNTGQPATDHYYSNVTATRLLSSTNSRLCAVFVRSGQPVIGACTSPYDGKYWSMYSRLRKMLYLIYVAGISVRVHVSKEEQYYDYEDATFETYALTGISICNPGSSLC
Pertussis toxin (PT), enzymatically active, sequence (P04979 29-227, chain 3 of 3): as the sequence (P04979 29-227) above
Pertussis toxin (PT), enzymatically active, sequence (P0A3R5 43-152, chain 4 of 3): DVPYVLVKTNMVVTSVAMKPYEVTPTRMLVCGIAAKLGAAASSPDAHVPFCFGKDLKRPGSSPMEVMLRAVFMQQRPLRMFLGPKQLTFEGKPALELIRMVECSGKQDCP
Experiment [3] has as its target PTg S5 subunit (Bordetella pertussis, UniProt P04981). Put plainly: cryo-EM structure.

PTg S2 subunit, sequence (P04978 28-226): as the sequence (P04978 28-226, chain 2 of 3) above

B1: PTg S1 subunit ([change], [change]) (natural protein)
chain: DDPPATVYKYDSRPPEDVFQNGFTAWGNNDNVLDHLTGRSCQVGSSNSAFVSTSSSRRYTEVYLEHRMQEAVEAERAGRGTGHFIGYIYEVRADNNFYGAASSYFEYVDTYGDNAGRILAGALATYQSGYLAHRRIPPENIRRVTRVYHNGITGETTTTEYSNARYVSQQTRANPNPYTSRRSVASIVGTLVRMAPVIGACMARQAESSEAMAAWSERAGEAMVLVYYESIAYSF
Consider B1, for which the binding result with PTg S5 subunit [1] was “binds”.

B2: hu11E6 Fab (Fab, V domains shown)
VH: EVQVVESGGGLVQPGRSLRLSCTTSGFTFTDYYVSWVRQAPGKALEWLGFIRNKVNGYTTEFSSSVKGRFTISRDNSKSILYLQMNSLKIEDTAVYYCARVSYYGRGWYFDYWGQGTTLTVSS
VL: DIVMTQSPSSLSASVGDRVTISCRASQDIDNYLSWFQQKPGGTVKLLIYYTSRLHSGVPSRFSGSGSGTDYTLTISSLQPEDIATYFCQQGNTFPWTFGGGTKLEIK
Regarding B2, the binding result with PTg S2 subunit and in the experiment with PTg S3 subunit was “binds” in each case.

B3: hu1B7mut IgG (hu1B7 heavy chain S56A, Q61A, Q64A) (antibody, V domains shown)
VH: QVQLVQSGAEVKKPGASVKVSCKASGYKFTSYWMHWVRQAPGQGLEWIGNIFPGSGATNYAAKFAGRVTLTVDTSTSTAYMELSSLRSEDTAVYYCTRWLSGAYFDYWGQGTTVTVSS
VL: QIVLTQSPATLSVSPGERVTLTCSASSSVSFMYWYQQKPGRAPKPLIYLTSNLPSGVPARFSGSGSGTSYTLTINSLEAEDAATYYCQQWSSHPPTFGSGTKLEIK
For B3, the binding result in experiment [2] is on record as “binds”.

B4: hu1B7 IgG (antibody, V domains shown)
VH: QVQLVQSGAEVKKPGASVKVSCKASGYKFTSYWMHWVRQAPGQGLEWIGNIFPGSGSTNYAQKFQGRVTLTVDTSTSTAYMELSSLRSEDTAVYYCTRWLSGAYFDYWGQGTTVTVSS
VL: QIVLTQSPATLSVSPGERVTLTCSASSSVSFMYWYQQKPGRAPKPLIYLTSNLPSGVPARFSGSGSGTSYTLTINSLEAEDAATYYCQQWSSHPPTFGSGTKLEIK
Take B4: the binding result in experiment [2] was “binds”.

B5: hu1B7 Fab (Fab, V domains shown)
VH: QVQLVQSGAEVKKPGASVKVSCKASGYKFTSYWMHWVRQAPGQGLEWIGNIFPGSGSTNYAQKFQGRVTLTVDTSTSTAYMELSSLRSEDTAVYYCTRWLSGAYFDYWGQGTTVTVSS
VL: QIVLTQSPATLSVSPGERVTLTCSASSSVSFMYWYQQKPGRAPKPLIYLTSNLPSGVPARFSGSGSGTSYTLTINSLEAEDAATYYCQQWSSHPPTFGSGTKLEIK
Consider B5, for which the binding result with PTg S5 subunit [3] is recorded as “binds”.
